Measurements reported in patent US12565517B2, “Cyclic peptide having CTLA-4 inhibitory activity and use thereof” (GeneFrontier Corporation, priority 2019, dated 2026).

Target: T1, CTLA-4 (Homo sapiens, UniProt P16410)
T1 sequence (P16410 36-223): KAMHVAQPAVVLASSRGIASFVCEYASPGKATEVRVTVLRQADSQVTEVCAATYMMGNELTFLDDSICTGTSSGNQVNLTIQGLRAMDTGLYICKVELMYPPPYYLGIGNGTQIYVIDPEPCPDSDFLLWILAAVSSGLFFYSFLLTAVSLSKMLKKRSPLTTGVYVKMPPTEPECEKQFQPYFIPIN
Test: ELISA binding of clones after Affinity Maturation with random library (Tables 10, 11)
Conditions: CTLA-4 binding ELISA of clones after Affinity Maturation from random (NNS) library; signal/noise ratio; clones of 4th or 5th round
Procedure: After each round of Affinity Maturation, the cyclic peptide genes were recovered and subcloned into pET-Mal vector (FIG. 2) in the same manner as described above to perform base sequence analysis. For the 94 single colonies analyzed for sequence, E. coli transformants were inoculated into 100 μL of 2×YT medium containing ampicillin (final concentration 50 μg/mL), incubated at 37° C. for 3-5 hours (OD600=0.5-0.8), then added with IPTG (final concentration 0.5 mM) and incubated at 25° C. overnight. 10 μL of E. coli cultured medium was added with 90 μL of PBS and 40 μL of lysis reagent (20 μL BugBuster Protein Extraction Reagent (Novagen), 20 μL Lysozyme solution 2.5 mg/mL) to lyse E. coli cells for 1 hour at room temperature. The cell lysate was added with 40 μL of 12.5% skim milk solution (TBST) and blocked for 1 hour at room temperature. In parallel, antigen protein was immobilized overnight at 4° C. in 384-well plates at 100 ng/20 μL per well, and each well was washed twice with 100 μL/well of TBST, added with 100 μL/well of 5% skim milk solution (TBST) for blocking for 1 hour at room temperature, and washed twice with 100 μL/well of TBST to obtain antigen-immobilized plates. 20 μL/well of blocking-treated E. coli extract was added to the antigen-immobilized plates and gently stirred at room temperature using a plate mixer. After 1 hour, the plates were washed 5 times with 100 μL/well of TBST, 20 μL/well of anti-FLAG M2-HRP conjugate (1:2000 dilution, Sigma) was added and gently stirred on a plate mixer for 1 hour at room temperature. The plates were washed 5 times with 100 μL/well of TBST, and binding of cyclic peptides to the antigen was detected by 20 μL/well of chromogenic substrate (0.4 mg/mL 3,3′,5,5′-Tetramethyl-benzidine, 0.01% hydrogen peroxide). After 15 minutes of reaction at room temperature, the reaction was stopped with 20 μL/well of 2N HCl, and absorbance at 450 nm was measured using a plate reader (infinite F200: TECAN) (Table 5).
Oligo DNAs of a library were synthesized (see below), in which amino acid residues (positions 1, 4, 8, 10, +1 and +2) (corresponding to X1, […], X8, X10, X+1 and X+2) other than those essential or advantageous for CTLA-4 binding (2H, 3P, 5L, 6P, 7I, 9S, 11H, 12F) identified by alanine scanning were randomized (NNS).
Affinity Maturation was performed in the same manner as described above. The amount of biotinylated CTLA-4 immobilized on the magnetic beads was 10 pmol in the 1st round, 2 pmol in the 2nd round, and 1 pmol in the 3nd-5th rounds, respectively. The washing period was 2 hours for the 1st round, 19 hours for the 2nd round, 67 hours for the 3nd round, 140 hours for the 4th round, and 340 hours for the 5th round. Washing frequency was 1 time (2 hours) in the 1st round, 2 times (every 10 hours) in the 2nd round, 6 times (every 10 hours) in the 3rd round, 14 times (every 10 hours) in the 4th round, and 36 times (every 10 hours) in the 5th round.

| Substance | ELISA S/N(SA) |
| --- | --- |
| C4m#19-5th2w-NNS6-3 (GGCAHPFLPIFSPHFCPF; C4m#19-5th2w-NNS6-3) | 18.4 |
| C4m#19-5th4w-NN6-36 (GGCRHPYLPIWSAHFCCR; C4m#19-5th4w-NN6-36) | 5.7 |
| C4m#19-5th4w-NN6-80 (GGCRHPFLPIFSWHFCAV; C4m#19-5th4w-NN6-80) | 3.8 |
| C4m#19-5th4w-NN6-6 (GGCMHPFLPIKSSHFCRK; C4m#19-5th4w-NN6-6) | 16.1 |
| C4m#19-5th4w-NN6-49 (GGCMHPYLPIRSFHFCSC; C4m#19-5th4w-NN6-49) | 4.0 |
| C4m#19-5th2w-NNS6-43 (GGCRHPFLPIWSSHFCAA; C4m#19-5th2w-NNS6-43) | 4.8 |
| C4m#19-5th4w-NN6-21 (GGCWHPWLPILSPHFCPR; C4m#19-5th4w-NN6-21) | 37.5 |
| C4m#19-5th4w-NN6-69-3 (GGCLHPWLPIVSVHFCAR; C4m#19-5th4w-NN6-69-3) | 24.9 |
| C4m#19-5th4w-NN6-94 (GGCLHPFLPIYSLHFCPC; C4m#19-5th4w-NN6-94) | 5.0 |
| C4m3127-4th-NNS6-90 (GGCKHPVLPIVSLHFCPW; C4m3127-4th-NNS6-90) [Clone C4m3127-4th-NNS6-90] | 22.9 |
| C4n#19-5th2w-NNS6-71 (GGCRHPYLPIASPHFCPG; left off: large carriers; small tags and cut ends) | 22.9 |
| C4m#19-5th4w-NN6-4 (GGCRHPYLPIVSRHFCPF; C4m#19-5th4w-NN6-4) | 31.6 |
| C4m#19-5th4w-NN6-69-1 (GGCSHPFLPILSVHFCPF; C4m#19-5th4w-NN6-69-1) | 24.9 |
| C4m#19-5th2w-NNS6-68 (GGCLHPWLPIVSCHFCPR; C4m#19-5th2w-NNS6-68) | 4.6 |
| C4m#19-5th2w-NNS6-6 (GGCWHPYLPILSLHFCQR; C4m#19-5th2w-NNS6-6) | 10.3 |
| C4m#19-5th4w-NN6-2 (GGCWHPHLPIVSSHFCLF; C4m#19-5th4w-NN6-2) | 18.4 |
| C4m#19-5th4w-NN6-53 (GGCRHPFLPIYSVHFCAC; C4m#19-5th4w-NN6-53) | 32.2 |
| C4m#19-6th4w-NN6-5-3 (GGCWHPFLPILSLHFCGW; left off: large carriers; small tags and cut ends) | 14.7 |
| C4m#19-5th2w-NNS6-37 (GGCIHPFLPIWSIHFCSR; C4m#19-5th2w-NNS6-37) | 9.4 |
| C4m#19-5th4w-NN6-87 (GGCLHPVLPIRSFHFCWR; C4m#19-5th4w-NN6-87) | 21.4 |
| C4m#19-5th2w-NNS6-70 (GGCRHPFLPIVSWHFCAA; C4m#19-5th2w-NNS6-70) | 5.1 |
| C4m#19-5th4w-NN6-93 (GGCCHPWLPIVSTHFCGL; C4m#19-5th4w-NN6-93) | 28.9 |
| C4m#19-5th4w-NN6-58 (GGCRHPFLPISSIHFCCI; C4m#19-5th4w-NN6-58) | 18.7 |
| C4m3127-4th-NNS6-12 (GGCSHPFLPIRSRHFCPF; C4m3127-4th-NNS6-12) [Clone C4m3127-4th-NNS6-12] | 15.8 |
| C4m#19-5th4w-NN6-39 (GGCWHPFLPIRSLHFCPR; C4m#19-5th4w-NN6-39) | 35.6 |
| C4m#19-5th2w-NNS6-84 (GGCWHPFLPIVSFHFCPF; C4m#19-5th2w-NNS6-84) | 6.4 |
| C4m#19-5th4w-NN6-90 (GGCRHPWLPIVSYHFCSS; C4m#19-5th4w-NN6-90) | 21.2 |
| C4m3127-4th-NNS6-70 (GGCSHPYLPIHSRHFCLS; C4m3127-4th-NNS6-70) [Clone C4m3127-4th-NNS6-70] | 4.6 |
| C4m#19-5th4w-NN6-7 (GGCRHPFLPIWSWHFCPF; C4m#19-5th4w-NN6-7) | 23.0 |
| C4m3127-4th-NNS6-30 (GGCWHPCLPILSPHFCPR; C4m3127-4th-NNS6-30) [Clone C4m3127-4th-NNS6-30] | 7.5 |

Further lines, results first:

| ELISA S/N(SA) | Substance |
| --- | --- |
| 4.1 | C4m3127-4th-NNS6-19 (GGCMHPSLPIWSWHFCPH; C4m3127-4th-NNS6-19) [Clone C4m3127-4th-NNS6-19] |
| 4.6 | C4m#19-5th4w-NN6-72 (GGCWHPWLPIVSVHFCGC; C4m#19-5th4w-NN6-72) |
| 4.8 | C4m3127-4th-NNS6-66 (GGCAHPHLPIRSVHFCSF; C4m3127-4th-NNS6-66) [Clone C4m3127-4th-NNS6-66] |
| 12.8 | C4m3127-4th-NNS6-79 (GGCLHPFLPIRSVHFCLR; C4m3127-4th-NNS6-79) [Clone C4m3127-4th-NNS6-79] |
| 16.1 | C4m#19-5th4w-NN6-14 (GGCWHPFLPIRSVHFCCR; C4m#19-5th4w-NN6-14) |
| 25.5 | C4m#19-5th2w-NNS6-67 (GGCQHPWLPISSWHFCPR; C4m#19-5th2w-NNS6-67) |
| 11.0 | C4m#19-5th2w-NNS6-45 (GGCRHPFLPIWSVHFCWR; C4m#19-5th2w-NNS6-45) |
| 24.7 | C4m#19-5th4w-NN6-68 (GGCLHPWLPIRSRHFCSR; C4m#19-5th4w-NN6-68) |
| 9.4 | C4m#19-5th2w-NNS6-33 (GGCRHPFLPIWSFHFCWG; C4m#19-5th2w-NNS6-33) |
| 15.8 | C4m#19-5th2w-NNS6-51 (GGCRHPFLPIVSLHFCPF; C4m#19-5th2w-NNS6-51) |
| 6.3 | C4m#19-5th2w-NNS6-28 (GGCAHPYLPIRSVHFCPC; C4m#19-5th2w-NNS6-28) |
| 11.4 | C4m#19-5th2w-NNS6-53 (GGCLHPWLPIRSFHFCGA; C4m#19-5th2w-NNS6-53) |
| 17.2 | C4m#19-5th4w-NN6-62 (GGCQHPYLPIWSFHFCPF; C4m#19-5th4w-NN6-62) |
| 28.8 | C4m#19-5th4w-NN6-9 (GGCFHPYLPIRSWHFCGR; C4m#19-5th4w-NN6-9) |
| 29.7 | C4m#19-5th4w-NN6-19 (GGCRHPYLPIWSIHFCQK; C4m#19-5th4w-NN6-19) |
| 30.0 | C4m#19-5th4w-NN6-92-1 (GGCVHPFLPIRSVHFCAL; C4m#19-5th4w-NN6-92-1) |
| 15.3 | C4m#19-5th2w-NNS6-75 (GGCWHPWLPIKSPHFCAL; C4m#19-5th2w-NNS6-75) |
| 29.3 | C4m#19-5th2w-NNS6-22 (GGCMHPFLPIQSVHFCSR; C4m#19-5th2w-NNS6-22) |
| 17.4 | C4m#19-5th4w-NN6-71 (GGCPHPWLPIASVHFCPF; C4m#19-5th4w-NN6-71) |
| 15.8 | C4m#19-5th4w-NN6-45 (GGCRHPWLPIWSVHFCGV; C4m#19-5th4w-NN6-45) |
| 12.8 | C4m3127-4th-NNS6-2 (GGCWHPSLPIYSPHFCPL; C4m3127-4th-NNS6-2) [Clone C4m3127-4th-NNS6-2] |
| 16.5 | C4m3127-4th-NNS6-16 (GGCWHPYLPIFSVHFCPR; C4m3127-4th-NNS6-16) [Clone C4m3127-4th-NNS6-16] |
| 15.1 | C4m#19-5th4w-NN6-74 (GGCFHPFLPIYSWHFCAR; C4m#19-5th4w-NN6-74) |
| 11.9 | C4m3127-4th-NNS6-60 (GGCWHPFLPISSWHFCGL; C4m3127-4th-NNS6-60) [Clone C4m3127-4th-NNS6-60] |

Same assay, conditions: S/N ratio of CTLA-4 binding in ELISA; clones from 4th or 5th round of Affinity Maturation from random (NNS) library

| Substance | ELISA S/N(SA) |
| --- | --- |
| C4m#19-5th2w-NNS6-93 (GGCFHPFLPIQSRHFCCR; C4m#19-5th2w-NNS6-93) | 3.4 |
